Data as given in US20210353740A1.
Values joined by “and” are separate entries in the source; they are usually repeats but may differ in a detail not shown here. Equal values may be shown once.

Tests used:
[1] = molecular target: FP-rTT monomer (HIV-1 Env fusion peptides conjugated to monomeric rTT) (HIV-1); assay: isothermal titration calorimetry (ITC), Fab against conjugate
[2] = molecular target: LS-Spy-rTT-FP8v1/PEG2 nanoparticle carrier (HIV-1); assay: as above

VRC34.01 Fab
competent Fab binding sites per entity (ITC stoichiometry) (binding sites per FP-rTT monomer) [1]: 6 | competent Fab binding sites per entity (ITC stoichiometry) (binding sites per nanoparticle carrier) [2]: 152 and 402
